Test system: MS2 coat protein
Assay: apparent KD of MS2 coat protein; designed switch direction (-1 OFF switch, 1 ON switch): -1; higher = weaker reporter binding
How it was run: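 Three titration conditions were used: no input, 200 uM small-molecule ligand, and an oligonucleotide input. In each, SNAP-549-labelled MS2 coat protein was raised from 0.7 or 1.5 nM, doubling, to 3 µM over designed RNA switches transcribed on Illumina chips by stalled E. coli RNA polymerase. Curve fits of normalised cluster fluorescence gave values whose per-design median over clusters is the apparent KD.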

[1] = input ligand: microRNA oligo, concentration not stated
[2] = Eterna round: R95, input ligand: FMN 200 uM
[3] = Eterna round: R95, input ligand: microRNA oligo, concentration not stated
[4] = Eterna round: R95, input ligand: none

Sequence | apparent KD of MS2 coat protein (input ligand: FMN 200 uM) | apparent KD of MS2 coat protein [1] | apparent KD of MS2 coat protein (input ligand: none) | apparent KD of MS2 coat protein [2] | apparent KD of MS2 coat protein [3] | apparent KD of MS2 coat protein [4]
CAGUACUGAGGAUAUACAUGAGGAUCACCCAUGUGGUCCAGCUAGGAAACUAGCACGUGUAGAAGGCAGUACUG [Ex3: 840] (Eterna round: R96, puzzle: Exclusion 3) | 0.0583 µM | 0.0553 µM | 0.0457 µM | – | – | –
AUAUUAAUAUAGGAUAUCGAAAUUAUUAAUUAUCGAGAAGGAUAAACAUGAGGAUCACCCAUGUGGUAUCAUGG [Mat - Exclusion 6 - JL Mod - D41] (puzzle: Exclusion 6) | – | – | – | 0.257 µM | 0.257 µM | 0.328 µM
UUAUGAGUAGGAUAUGAGCCAAAAUACAUGAGGAUCACCCAUGUCGGGUUCAUGGAGGGCUCAGAAGGAUUCAAUA [Exclusion 5 - Laarte Mod] (Eterna round: R97, puzzle: Exclusion 5) | 0.105 µM | – | 0.017 µM | – | – | –
GUUUCACAUGAGGAUCACCCAUGUGAGGAUAUAGAUUUGUUAGUCGUAAUUGAUAGAUUUAGAAGGCGCGUGAU [JR_Exc1_Sub002] (Eterna round: R97, puzzle: Exclusion 1) | 0.0274 µM | – | 0.0252 µM | – | – | –
UGAGCAUGAGGAUAUACAAGGCGACCGUGAGGUCGAGGUUUACAUGAGGAUCACCCAUGUAGAAGGCAUGUUCU [jl-ex2-4.07] (Eterna round: R97, puzzle: Exclusion 2) | 0.0402 µM | – | 0.02 µM | – | – | –
CUUUAGUGAGGAUAUCAGUAGUAAUACAAUAGUAUUACUAUUGAGAAGGCACAUGAGGAUCACCCAUGUUCCUC [Mat - Exclusion 4 - Mod of Omei - D80] (puzzle: Exclusion 4) | – | – | – | – | 0.0272 µM | –
GCUGGUCAAGGAUAUACAAUCGUGCUUCGGCACGUAAGAUCACAUGAGGAUCACCCAUGUAGAAGGUGACCAGC [E2/1-C1] (Eterna round: R97, puzzle: Exclusion 2) | 0.507 µM | – | 0.0372 µM | – | – | –
UUUUAACAUGAGGAUCACCCAUGUGAGGAUAUCCUAUUUUUUUUUUUUUUUUUUUUUUGGAGAAGGCACAUUUU [My solution] (puzzle: Exclusion 1) | – | – | – | 0.0231 µM | 0.0383 µM | 0.00745 µM
UAUUAGCAAGCAAAUGGGUACAUGAGGAUCACCCAUGUGCUCGUCUUAUAAGGUACUGUGACGAACGUCACGGUACC [mod--Eli5] (Eterna round: R97, puzzle: Sensor, turn-off variant 1) | 0.0278 µM | – | 0.0268 µM | – | – | –
GUCGCUAGAGGAUAUACAAUGGUAUAUGAUCCUAGUGACAUACAUGAGGAUCACCCAUGUAGAAGGCUAGUAAU [Exclusion 2 - 7] (puzzle: Exclusion 2) | – | – | – | – | 0.0248 µM | –
AGUACUAACACGUCGGUGUUAGUACAAUAAGCUUGUGAAACAUGAGGAUCACCCAUGUCCUCAUAAGCUCGUCUUAU [salish99_TOv2_r3_080] (puzzle: Sensor v3, turn-off variant 2) | – | – | – | 0.0174 µM | 0.575 µM | 0.0155 µM
ACAAGCUUUUUGCUCGGGUACAUGAGGAUCACCCAUGUUUGGGUUUAUUGAGGUUGUGUUGUCGUGCGCUGCAGGUU [JR_SV3TOV1_Sub076] (puzzle: Sensor v3, turn-off variant 1) | – | – | – | 0.165 µM | 0.416 µM | 0.232 µM
CUAGCGGAUGUAGGAUAUCGGACUGUUUCAGUCUGAGAAGGACAUGAGGAUCACCCAUGUAUAGCUACGUGAGUAGCUCGCUAG [JL ENG1 3.95] (Eterna round: R96, puzzle: Exclusion NG 1) | 0.0381 µM | 0.0153 µM | 0.0228 µM | – | – | –
UUUUUAUAUGAAGGAUAUACUUAACAUGAGGAUCACCCAUGUGGUGUUGUGAGUGAGUGAGUUUAGUAGAAGGUCAAUUCUUUG [JMF's solution 84] (Eterna round: R96, puzzle: Exclusion NG 2) | 0.397 µM | 0.344 µM | 0.347 µM | – | – | –
UUUUUCAGGCCAGAUCCUCACAUGAGGAUCACCCAUGUGCUCGUCUGUUUUCGCACUAGCUUUUUUUUGGUAGUGCU [Level Boss var2-15] (puzzle: Sensor v3, turn-off variant 1) | – | – | – | 0.28 µM | 0.0284 µM | 0.325 µM
GUAAAGGUAGGAUAUACGAAGAAAAAGGGUAGAAGAAGAACACAUGAGGAUCACCCAUGUAGAAGGACCAAAUG [Mat - Exclusion 2 - Mod of my Tesla design - D4] (puzzle: Exclusion 2) | – | – | – | 0.0639 µM | 0.0248 µM | 0.0285 µM
AGUACUAUCGCGAAAGCGAUAGUACAAAAAGCAAGUGAAACAUGAGGAUCACCCAUGUCCUCAUUUGCUCGUCUUAU [Mat - Sensor v2 -ver2- JL mod - D89] (Eterna round: R96, puzzle: Sensor v2, turn-off variant 2) | 0.0121 µM | 0.39 µM | 0.0143 µM | – | – | –

Sequence | apparent KD of MS2 coat protein (input ligand: FMN 200 uM) | apparent KD of MS2 coat protein [1] | apparent KD of MS2 coat protein (input ligand: none) | apparent KD of MS2 coat protein [2] | apparent KD of MS2 coat protein [3] | apparent KD of MS2 coat protein [4]
UAGUACCAAGGAUAUGCGUGACCAUGGCCUCCGUGGUAGAGACAUGAGGAUCACCCAUGUAGAAGGUGGAUAAC [Eternabot (L1) Solution 74] (Eterna round: R97, puzzle: Exclusion 2) | 0.401 µM | – | 0.335 µM | – | – | –
UUUAAGGGAAUUAAGAUCACAUGAGGAUCACCCAUGUAUAUAUAGGAUAUCAGCUCGAUUAGAGCUGAGAAGGAUAUAUACAUA [ExNG3/6-A1] (Eterna round: R96, puzzle: Exclusion NG 3) | 0.126 µM | 0.0797 µM | 0.165 µM | – | – | –
UACACUGCAUGAGGAUCAAACAUGAGGAUCACCCAUGUAUAGCAAGCUUUUUGCACGUCUUAUAAUUAUGUAGUGUA [Electric Eye 13 - Jieux - Sensor, turn-off variant 1] (Eterna round: R97, puzzle: Sensor, turn-off variant 1) | 0.0151 µM | – | 0.0162 µM | – | – | –
UGAUCACAUGAGGAUCACCCAUGUCAGGAUAUCGUCACUGGAGCUGCGGCUCCAGUGACGAGAAGGGAUAUAAU [E1/5-A3] (Eterna round: R97, puzzle: Exclusion 1) | 0.293 µM | – | 0.104 µM | – | – | –
GUUACACAUGAGGAUCACCCAUGUAAGGAUAUGCUGCGGUCGCGCUGACGUGACUGCAGCAGAAGGUACAAAUG [Mat - Mod of JL D56] (puzzle: Exclusion 1) | – | – | – | – | 0.0593 µM | –
GUGUACGCAGGAUAUACAUGAGGAUCACCCAUGUGAAUAAGAUAGAAUAAGAUAAAGUGUAGAAGGGCGAGUGU [Excluse me!!! 5 - Jieux - Exclusion 3] (puzzle: Exclusion 3) | – | – | – | – | 0.0283 µM | –
GUGUACAGAGGAUAUAUAUGAGCAUGGAAACAUGCAAGAUCACAUGAGGAUCACCCAUGUAGAAGGCUGUACAC [Ex2: 736] (Eterna round: R96, puzzle: Exclusion 2) | 0.861 µM | 0.0993 µM | 0.112 µM | – | – | –
AUUGUUGUUGUGAGGAUAUCGUUGAUUUUUUGAAACGAGAAGGCACAUGAGGAUCACCCAUGUUAGUUGUUGGU [JR_BMOE4_Sub057] (puzzle: Brourd's mod of Exclusion 4) | – | – | – | – | 0.0773 µM | –
CUUGUGUGAGGAUAUGAAUUGCCUGGUCAUCCAGGCUCCUGUCAGAAGGCACAUGAGGAUCACCCAUGUGGGCA [Biatire] (Eterna round: R97, puzzle: Exclusion 4) | 0.12 µM | – | 0.882 µM | – | – | –
ACAAGCUUUUUGCAUCAAGCAUUAAAGUCUGUGAUCGUAACAUGAGGAUCACCCAUGUAAGUUUUAUGUCGUCUUAU [JR_SV3TOV2_Sub097] (puzzle: Sensor v3, turn-off variant 2) | – | – | – | 0.0397 µM | 0.0483 µM | 0.0411 µM
ACAACAAGCUUUUUGUUCGUAGAACAUGAUGCUCUAGUCACAUGAGGAUCACCCAUGUCAACUAGAUAGAUAGUUGA [JR_SV3TOV2_Sub062] (puzzle: Sensor v3, turn-off variant 2) | – | – | – | 0.043 µM | 0.0957 µM | 0.0441 µM
AAAAGGUGAGGAUAUUCGGCGCCGGGAAGGUUGGUGCGGAUGAAGAAGGCACAUGAGGAUCACCCAUGUAAUAA [Excls4-I] (puzzle: Exclusion 4) | – | – | – | – | 0.0435 µM | –
UACAUGAGGAUCACCCAUGUUUUGUCGUGUAUGGUAUUUAUCUAGGAUAUCAUUUGAUUUAUUUAUGAGAAGGAGAAUAUUAAU [JMF's solution 100] (Eterna round: R96, puzzle: Exclusion NG 3) | 0.0343 µM | 0.0281 µM | 0.0298 µM | – | – | –
UUAAUUCUGAUUCUUGAAAUACAUGAGGAUCACCCAUGUUCACAGGAUAUUGAUUAUGUUAGUUACAAGAAGGGUGUAUCAUAU [JR_ExcNG3_Sub038] (Eterna round: R96, puzzle: Exclusion NG 3) | 0.0389 µM | 0.0268 µM | 0.0306 µM | – | – | –
GAUUAUGCGAGCUUUAGGGACAUGAGGAUCACCCAUGUUCGUCUUAUUAGUCUAGGUGCACUAACAUACCUAAAUCU [JMF 35] (puzzle: Sensor v3, turn-off variant 1) | – | – | – | 0.0207 µM | 0.036 µM | 0.0213 µM
UGCGGGCUUUUGAGACCUCACAUGAGGAUCACCCAUGUGCUUGUCUUGUGGGUCGGUCGGUCGUUGGCUGGCUGGCG [Sensor-V1 #95] (Eterna round: R97, puzzle: Sensor, turn-off variant 1) | 0.02 µM | – | 0.0193 µM | – | – | –
UUAGGCGUCUUUGCUCGUCUUAUUUGGAGAUGACUGUUAACAUGAGGAUCACCCAUGUGUGUGGGAGCUUUGCAGUU [JR_SV3TOV2_Sub022] (puzzle: Sensor v3, turn-off variant 2) | – | – | – | 0.215 µM | 0.377 µM | 0.271 µM
